Data set [1] has as its system patients with untreated advanced NSCLC.
Procedure: (§1) This is a randomized, double-blind, placebo-controlled, multicenter, phase III clinical study for assessing the efficacy and safety of toripalimab (JS001) or placebo in combination with first-line chemotherapy in patients with untreated advanced NSCLC and exploring the population with optimal biomarker prediction.
(§2) Toripalimab 240 mg/placebo was administered by intravenous infusion once every three weeks (Q3W) in cycles of 21 days, with treatment continued until the patients met the discontinuation criteria, i.e., recorded progressive disease, unacceptable AEs, investigator-assessed unsuitability for continued treatment, withdrawal of informed consent, 2 years of JS001 treatment, or other reasons as specified in the protocol.
(§3) The selection of cisplatin or carboplatin was at the discretion of the investigator.
(§4) Safety analysis set (SS): including all patients who received at least one dose of the study drug (JS001/placebo/chemotherapeutic agent).
(§5) Safety analysis was performed in SS and crossover treatment analysis sets, where safety data from the double-blind stage of the primary study and the crossover treatment stage were analyzed separately. Safety analyses include drug exposure, compliance, adverse events, laboratory examinations, vital signs, physical examinations, electrocardiogramaminations, ECOG scores, etc.
(§6) All safety analyses were based on the SS population (464 patients), including 308 patients in the test group and 156 patients in the control group. […] The primary safety analysis results based on the SS population in the double-blind stage of the primary study are as follows:
Data set [2] has the same test system. The data set can be described thus: Phase III clinical study, safety analysis (SS population). The settings on record: SS population, test group.
Procedure: as §1, §2, §3, §4, §5, §6

As to “JS001: humanized IgG4 anti-PD-1 mAb with light and heavy chain amino acid sequences SEQ ID NOs: 9 and 10”, in data set [1], the “SAE judged by the investigator to be related to JS001: infectious pneumonia” value was 1.6%. For the same substance, in data set [2], the “SAE judged by the investigator to be related to JS001: anemia” value came to 2.6%, the “SAE judged by the investigator to be related to JS001: immune-mediated hepatitis” value came to 1.0%, the “SAE judged by the investigator to be related to JS001: immune-mediated pneumonia” value came out at 2.6% and the “SAE judged by the investigator to be related to JS001: interstitial lung disease” value was 1.3%. Further, in data set [2], the “SAE judged by the investigator to be related to JS001: leukopenia” value was 1.0%, the “SAE judged by the investigator to be related to JS001: liver function abnormality” value is given as 1.3%, the “SAE judged by the investigator to be related to JS001: neutropenia” value was found to be 1.9% and the “SAE judged by the investigator to be related to JS001: pulmonary inflammation” value was 1.0%. The “SAE judged by the investigator to be related to JS001: thrombocytopenia” value in data set [2] is on record as 2.3%.

Values taken from US20240218066A1, “USE OF ANTI-PD-1 ANTIBODY IN COMBINATION WITH FIRST-LINE CHEMOTHERAPY IN TREATMENT OF ADVANCED NON-SMALL CELL LUNG CANCER” (SHANGHAI JUNSHI BIOSCIENCES CO., LTD., priority 2021, published 2024).
